{"source": "patent US9951335B2", "about": "“Compositions and methods for treating otitis media and other conditions with inhibitors of CYLD” (Georgia State University Research Foundation, Inc., priority 2012, dated 2018)", "molecules": {"B1": {"name": "siCYLD: RNA-mediated interference for downregulating CYLD expression using pSuper-CYLD, SEQ ID NO:13 (nucleic acid)", "chain": "GATCCCCGAGCTACTGAGGACAGAAATTCAAGAGATTTCTGTCCTCAGTAGCTCTTTTTGGAAA", "modifications": "expressed from pSuper vector"}}, "key": {"CYLD": {"system": "CYLD", "assay": "CYLD knockdown efficiency of siCYLD (immunoblotting)", "assay_type": "cell-based, human", "conditions": "a number of cell types including NHBE cells", "method": "RNA-mediated interference for downregulating CYLD expression was carried out using pSuper-CYLD and the sequence for the siCYLD is 5′-[…]-3′ (SEQ ID NO:13). Human and mouse siRNAs for Akt and CHIP were from Dharmacon, and knockdown of Akts and CHIP, using siAkt and siCHIP, was performed with Lipofectamine 2000 (Invitrogen). ON-TARGETplus SMARTpool of siRNAs targeting human Akt1, human CHIP, mouse Akt1, and mouse Akt2 consists of four siRNAs and sequences for the siRNAs are as follows: Human siAkt1 (5′-[…]-3′ (SEQ ID NO:14), 5′-[…]-3′ (SEQ ID NO:15), 5′[…]-3′ (SEQ ID NO:16), 5′-[…]-3′ (SEQ ID NO:17)); human CHIP (5′-[…]-3′ (SEQ ID NO:18), 5′-[…]-3′ (SEQ ID NO:19), 5′-[…]-3′ (SEQ ID NO:20), 5′-[…]-3′ (SEQ ID NO:21)); mouse Akt1 (5′-[…]-3′ (SEQ ID NO:22), 5′-[…]-3′ (SEQ ID NO:23), 5′-[…]-3′ (SEQ ID NO:24), 5′-[…]-3′ (SEQ ID NO:25)); mouse Akt2 (5′-[…]-3′ (SEQ ID NO:26), 5′-[…]-3′ (SEQ ID NO:27), 5′-[…]-3′ (SEQ ID NO:28), 5′-[…]-3′ (SEQ ID NO:29)).\nWestern blot, immunoprecipitation and ubiquitination experiments were performed as follows. Western blots were performed using whole-cell extracts, separated on 8 or 10% SDS-PAGE gels, and transferred to polyvinylidine di& uoride membranes. […] Immunoprecipitates were then suspended in a sample buffer, separated on 8% SDS-PAGE, transferred to polyvinylidine difluoride membrane, and detected by immunoblot analysis, as described above. […]"}, "TGF-β-signalling": {"system": "TGF-β-signalling", "assay": "SBE-Luc activity in TβR-deficient DR26 and R1B cells", "assay_type": "cell-based, mink", "text": "Having identified CYLD as a negative regulator of TGF-β-signalling and lung fibrosis, we next sought to determine how CYLD inhibits TGF-β-signalling. TGF-β-ligands bind to a type II receptor (TβRII), which recruits and phosphorylates a type I receptor (TβRI). The activated TβRI then phosphorylates the Smad subgroup known as receptor-activated Smads (R-Smad), for example, Smad3, which can bind to Co-Smad Smad4. The R-Smad and Co-Smad complex then undergoes nuclear translocation for target gene regulation. To first determine at which level CYLD inhibits TGF-β-signalling, we took advantage of the available lung epithelial cell lines, DR26 and R1B that are derived from the WT Mv1Lu cells and lack functional […] TβRI, respectively. […] We next determined whether CYLD exerts its inhibitory effect on TGF-β-signalling at the level or downstream of TβRI by assessing the effects of siCYLD on WT-Smad3-induced SBE-Luc activity in TβRI-deficient R1B cells. […] To further determine whether CYLD inhibits TGF-β-signalling by likely targeting Smad3, we next evaluated the effect of CYLD knockdown in Smad3-deficient MEF cells.\nA549, HeLa and HEK293 cells were maintained in the F12-K, minimal essential medium Eagle's with Earle's balanced salt solution (EMEM), and DMEM […]. […]"}, "NF-κB": {"system": "NF-κB", "assay": "TNF-α-induced NF-κB-Luc activity", "assay_type": "cell-based", "conditions": "TNF-α 10 ng ml−1", "method": "The expression plasmids Flag-WT-CYLD, HA-WT-CYLD, Flag-H/N-CYLD, HA-C/S-CYLD, Flag-WT-Smad3, C/A-TβRI, and the reporter plasmids SBE-Luc, PAI-1-Luc, and NF-κB-Luc were previously described. Flag-WT-Akt1, pRK5-HA-Ub WT, pRK5-HA-Ub K63, and pRK5-HA-Ub K48 were from Addgene, and K to R mutants of Akt were generated with WT-Akt1 using QuickChange XL Site-Directed Mutagenesis kit (Stratagene). All transient transfections were carried out using TransIT-LT1 reagent (Minis) or Lipofectamine (Invitrogen) according to manufacturers' instructions."}}, "data": [{"molecule": "B1", "values": [{"measurement": "endogenous CYLD protein expression", "setting": "CYLD", "result": "efficiently reduced"}, {"measurement": "WT-Smad3-induced SBE-Luc activation", "setting": "TGF-β-signalling; TβRI-deficient R1B cells", "result": "markedly enhanced"}, {"measurement": "constitutively active (C/A)-TβRI-induced SBE-Luc activity", "setting": "TGF-β-signalling; TβRII-deficient DR26 cells", "result": "markedly enhanced"}, {"measurement": "TNF-α-induced activation of NF-κB-Luc activity", "setting": "NF-κB", "result": "greatly enhanced"}]}]}
